Values quoted from earlier work as cited in paper PMC8910571.

Molecular target: T1, PTK7 (tyrosine kinase 7 protein) (UniProt Q13308)
T1 sequence: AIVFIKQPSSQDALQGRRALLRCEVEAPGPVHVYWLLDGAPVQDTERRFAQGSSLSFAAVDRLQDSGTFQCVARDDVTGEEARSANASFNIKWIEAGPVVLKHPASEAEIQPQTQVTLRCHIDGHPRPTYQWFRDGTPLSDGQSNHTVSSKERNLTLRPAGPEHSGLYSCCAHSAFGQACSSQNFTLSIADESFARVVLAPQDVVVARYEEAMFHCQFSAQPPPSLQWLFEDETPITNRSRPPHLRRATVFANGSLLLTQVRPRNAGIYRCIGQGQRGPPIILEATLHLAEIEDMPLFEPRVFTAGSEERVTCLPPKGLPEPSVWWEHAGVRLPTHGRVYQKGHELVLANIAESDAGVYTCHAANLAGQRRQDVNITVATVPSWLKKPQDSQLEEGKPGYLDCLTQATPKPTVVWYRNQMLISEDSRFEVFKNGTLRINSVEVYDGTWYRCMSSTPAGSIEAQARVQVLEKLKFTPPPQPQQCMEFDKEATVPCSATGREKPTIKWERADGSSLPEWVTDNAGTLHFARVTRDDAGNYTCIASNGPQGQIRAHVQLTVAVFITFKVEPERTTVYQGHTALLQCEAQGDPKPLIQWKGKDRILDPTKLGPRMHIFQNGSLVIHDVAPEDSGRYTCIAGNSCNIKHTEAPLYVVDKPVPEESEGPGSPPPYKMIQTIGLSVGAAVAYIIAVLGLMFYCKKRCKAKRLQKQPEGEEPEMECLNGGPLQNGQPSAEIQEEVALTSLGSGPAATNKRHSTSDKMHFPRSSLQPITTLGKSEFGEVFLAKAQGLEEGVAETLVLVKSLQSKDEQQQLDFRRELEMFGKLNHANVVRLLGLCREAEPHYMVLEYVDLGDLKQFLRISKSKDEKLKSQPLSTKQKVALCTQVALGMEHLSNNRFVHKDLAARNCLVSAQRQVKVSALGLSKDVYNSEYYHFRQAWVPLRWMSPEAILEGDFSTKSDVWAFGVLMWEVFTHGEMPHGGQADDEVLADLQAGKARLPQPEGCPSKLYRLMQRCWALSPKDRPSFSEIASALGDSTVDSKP

ATCTAACTGCTGCGCCGCCGGGAAAATACTGTACGGTTAGA [Sgc8-c]
Kd: 0.78 nM
